In the RNAGym collection of RNA variant scans (doi:10.1093/molbev/msab373):

B1: Azoarcus group I ribozyme (parent)
chain: GUGCCUUGCGCCGGGAAACCACGCAAGGGAUGGUGUCAAAUUCGGCGAAACCUAAGCGCCCGCCCGGGCGUAUGGCAACGCCGAGCCAAGCUUCGGCGCCUGCGCCGAUGAAGGUGUAGAGACUAGACGGCACCCACCUAAGGCAAACGCUAUGGUGAAGGCAUAGUCCAGGGAGUGGCGAAAGUCACACAAACCGG

Variants of: B1
Assay: reverse-splicing fitness (ratio to wild type); higher = more active; in vitro selection; Mg2+ level not given
Procedure, shortened: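 An in vitro group I ribozyme library with randomized positions was T7-transcribed and gel-purified. In triplicate, 10 pmol RNA in EPPS pH 7.5 was reacted with 50 pmoles of a 30-nt RNA substrate for 1 h at 37 °C across several added MgCl2 levels (1–48 mM), then stopped with EDTA. Products were reverse transcribed from a substrate-complementary primer, PCR-amplified and sequenced (HiSeq 4000). Fitness is a variant's read proportion after selection over that before, normalised to wild type.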
With A111G A120G A145U C150U C169U U176G the reverse-splicing fitness was 0.00675. In the case of A111G A120G A145U C150U C169U U176A, the reverse-splicing fitness is reported as 0.0647. A111G A120G A145U C150A C169G gave a reverse-splicing fitness of 0.0305. A111G A120G A145U C150A C169A showed a reverse-splicing fitness of 0.018. For A111G A120G A145U C150A C169U, the reverse-splicing fitness was 0.0268. In the case of A111G A120U A145G C150G C169A U176G, the reverse-splicing fitness is reported as 0.00395. Work on A111G A120U A145G C150G C169A U176C yielded a reverse-splicing fitness of 0.00599. For A111G A120U A145G C150G C169A U176A, the reverse-splicing fitness was 0.00856. With A111G A120G A145U the reverse-splicing fitness was 0.274. Work on A111G A120G C150A C169U U176A yielded a reverse-splicing fitness of 0.0272. A111G A120G C150A C169U U176G gave a reverse-splicing fitness of 0.00819. Variant A111G A120G C150A C169U U176C has a reverse-splicing fitness of 0.0286. For A111G A120U A145C C150A U176G, the reverse-splicing fitness was 0.00839. Work on A111G A120U A145C C150A U176C yielded a reverse-splicing fitness of 0.00924. Variant A111G A120U A145C C150A U176A has a reverse-splicing fitness of 0.0179. For A111G A120U A145U C150A C169U, the reverse-splicing fitness was 0.0112. Work on A111G A120U A145U C150A C169G yielded a reverse-splicing fitness of 0.00763. A111G A120U A145U C150A C169A showed a reverse-splicing fitness of 0.00222. For A111G A120U A145U C150U C169U U176A, the reverse-splicing fitness was 0.0131. A111G A120U A145U C150U C169U U176G showed a reverse-splicing fitness of 0.00321. A111G A120U A145U C150U C169U U176C gave a reverse-splicing fitness of 0.0168. For A111G A120U A145G C150A C169A U176C, the reverse-splicing fitness was 0.00368. A111G A120U A145G C150A C169A U176A gave a reverse-splicing fitness of 0.00539. With A111G A120U A145G C150A C169A U176G the reverse-splicing fitness was 0.00273. In the case of A111G A120G C169G, the reverse-splicing fitness is reported as 0.321. For A111G A120G C169A, the reverse-splicing fitness was 0.165. For A111G A120G C169U, the reverse-splicing fitness was 0.236. For A111G A120U A145C C150A C169G U176C, the reverse-splicing fitness was 0.00181. With A111G A120U A145C C150A C169G U176A the reverse-splicing fitness was 0.00272. A111G A120U A145C C150A C169G U176G gave a reverse-splicing fitness of 0.00195. Variant A111G A120G C150A C169G has a reverse-splicing fitness of 0.0355. For A111G A120G C150A C169U, the reverse-splicing fitness was 0.0298. With A111G A120G C150A C169A the reverse-splicing fitness was 0.0242. Variant A111G A120U A145U C150G C169U U176G has a reverse-splicing fitness of 0.00216. A111G A120U A145U C150G C169U U176A gave a reverse-splicing fitness of 0.00269. With A111G A120U A145U C150G C169U U176C the reverse-splicing fitness was 0.00372. In the case of A111G A120U A145G C150G U176G, the reverse-splicing fitness is reported as 0.00403. A111G A120U A145G C150G U176A showed a reverse-splicing fitness of 0.00779. A111G A120U A145G C150G U176C showed a reverse-splicing fitness of 0.0188. Variant A111G A120U A145C C150U C169U U176A has a reverse-splicing fitness of 0.00601. A111G A120U A145C C150U C169U U176C gave a reverse-splicing fitness of 0.00282. Variant A111G A120U A145C C150U C169U U176G has a reverse-splicing fitness of 0.00212. Work on A111G A120U A145C C150A C169U U176A yielded a reverse-splicing fitness of 0.00311. With A111G A120U A145C C150A C169U U176C the reverse-splicing fitness was 0.00268. A111G A120U A145C C150A C169U U176G gave a reverse-splicing fitness of 0.00197. In the case of A111G A120U A145U C169G U176A, the reverse-splicing fitness is reported as 0.00865. Work on A111G A120U A145U C169G U176C yielded a reverse-splicing fitness of 0.0178. A111G A120U A145U C169G U176G showed a reverse-splicing fitness of 0.00196. For A111G A120G A145U C169U U176G, the reverse-splicing fitness was 0.0103. A111G A120G A145U C169U U176C showed a reverse-splicing fitness of 0.093. A111G A120G A145U C169U U176A showed a reverse-splicing fitness of 0.0839. A111G A120U A145C C150A C169G showed a reverse-splicing fitness of 0.0049. Work on A111G A120U A145C C150A C169A yielded a reverse-splicing fitness of 0.00208. For A111G A120U A145C C150A C169U, the reverse-splicing fitness was 0.00746. Variant A111G A120G A145U U176A has a reverse-splicing fitness of 0.0829. Work on A111G A120G A145U U176G yielded a reverse-splicing fitness of 0.00952. In the case of A111G A120G A145U U176C, the reverse-splicing fitness is reported as 0.116. A111G A120U A145U C150G C169G U176G showed a reverse-splicing fitness of 0.00203. With A111G A120U A145U C150G C169G U176A the reverse-splicing fitness was 0.00284. For A111G A120U A145U C150G C169G U176C, the reverse-splicing fitness was 0.00268. In the case of A111G A120U A145C C150G U176A, the reverse-splicing fitness is reported as 0.0114. Variant A111G A120U A145C C150G U176G has a reverse-splicing fitness of 0.0047. A111G A120U A145C C150G U176C gave a reverse-splicing fitness of 0.0153. Variant A111G A120G A145G C169A U176G has a reverse-splicing fitness of 0.00474. Work on A111G A120G A145G C169A U176A yielded a reverse-splicing fitness of 0.0489. A111G A120G A145G C169A U176C gave a reverse-splicing fitness of 0.0746. In the case of A111G A120G A145U C169G U176A, the reverse-splicing fitness is reported as 0.0761. A111G A120G A145U C169G U176G showed a reverse-splicing fitness of 0.00712. For A111G A120G A145U C169G U176C, the reverse-splicing fitness was 0.106. A111G A120G C150G U176G gave a reverse-splicing fitness of 0.00356. A111G A120G C150G U176C gave a reverse-splicing fitness of 0.0173. With A111G A120G C150G U176A the reverse-splicing fitness was 0.011. In the case of A111G A120G C150G C169A U176C, the reverse-splicing fitness is reported as 0.0116. A111G A120G C150G C169A U176G showed a reverse-splicing fitness of 0.00604. Variant A111G A120G C150G C169A U176A has a reverse-splicing fitness of 0.00862. In the case of A111G A120G A145G C169U U176G, the reverse-splicing fitness is reported as 0.00896. A111G A120G A145G C169U U176C gave a reverse-splicing fitness of 0.0954. In the case of A111G A120G A145G C169U U176A, the reverse-splicing fitness is reported as 0.0849. Work on A111G A120U A145U C150A yielded a reverse-splicing fitness of 0.0903. A111G A120U A145U C150U showed a reverse-splicing fitness of 0.584. A111G A120U A145U C150G gave a reverse-splicing fitness of 0.105. Variant A111G A120U A145U C150U C169A U176C has a reverse-splicing fitness of 0.0026. A111G A120U A145U C150U C169A U176G gave a reverse-splicing fitness of 0.00175. Variant A111G A120U A145U C150U C169A U176A has a reverse-splicing fitness of 0.00375.
